According to patent publication US20250074946A1 (HEBEI FITNESS BIOTECHNOLOGY, published 2025):

molecular target: HLA-DR1 (human); assay: fluorescence polarization competition; displaces 25 nM fluorescently-labeled polypeptide from 500 nM HLA-DR1

| Binder | IC50 [µM] |
| --- | --- |
| FKGRQAGAGE [APL41] | 88.4 |
| RSGTLASAETGVG [APL60] | 61.7 |
| IWYINCFGCRTAAML [APL55] | 98.8 |
| IWYINCFGCHTAAML [APL56] | 69.2 |

molecular target: HLA-DR1 (human); assay: as above; remark: another data set of the same source

| Binder | IC50 [µM] |
| --- | --- |
| RSFTLASSATGVG [APL17] | 3.53 |
| RSFTLAASETGVG [APL16] | 5.55 |
| FKGEQAGAGE [FNS007 (APL2)] | 3.37 |
| IWYIQCFGCETHAML [APL8] | 5.47 |
| SIDLKDKKYKNIGAKLVQLVANNTNEEA [APL20] | 3.88 |
| IWYISCFGCETHAML [APL9] | 5.09 |
| RSFTAASSETGVG [APL14] | 6.54 |
| IWYINCFVCETHAML [APL12] | 5.2 |
| IWYITCFGCETHAML [APL10] | 5.87 |
| IWYINCFACETHAML [APL11] | 3.98 |
| MGPKGRTVIIEQSLGSPKVTK (also called ALP21) [APL21] | 4.15 |
| RSFALASSETGVG [APL13] | 5.02 |
| RSFTLASSEAGVG [APL18] | 4.88 |
